According to patent US20250326863A1:

Molecular target: human IgG
Assay: bio-layer interferometry

B1: recombinant monoclonal low affinity rheumatoid factor RF^low (human IgM; RC1 of Youngblood et al. 1994) (antibody, V domains shown)
VH: QVQLVQSGGGVVQPGRSLRLSCAASGFTFSSYAMHWVRQAPGKGLEWVAVISYDGSNKYYAESVKGRFTISRDNSKNTLYLRMNSLRTEETAVYYCARDGDVGSYGPGTYYPIDYWGQGTLVSVSP
VL: EIVLTQSPATLSLSPGERATLSCRASQSVSSYLAWYQEKPGTAPRLLIYDASNRATGIPARFSGSGSGTDFTLTISSLEPEDFAVYYCQQRRNWPLTFGPGTKVDIK
Kd: 100 nM
